Patent US20250049939A1 (TUBULIS, published 2025)

Legend:
[1] = biological target: T1, PDGFRα on Ba/F3 cells (UniProt P16234 24-1089, limits assumed); assay: flow cytometry, cell surface binding to Ba/F3 pMIY cells expressing PDGFRα, MFI ratio normalized to IgG1, mean ± s.d. of n=3
T1 construct: whole, on cells

[2] = biological target: T2, murine FLT3 expressed on Ba/F3 cells (mouse, UniProt Q00342 28-1000); assay: flow cytometry, cell surface binding to Ba/F3 pMIY cells expressing mFLT3wt, MFI ratio normalized to IgG1, mean ± s.d. of n=3
T2 construct: whole, on cells; also called mFLT3 wt; mFLT3
T2 sequence (looked up): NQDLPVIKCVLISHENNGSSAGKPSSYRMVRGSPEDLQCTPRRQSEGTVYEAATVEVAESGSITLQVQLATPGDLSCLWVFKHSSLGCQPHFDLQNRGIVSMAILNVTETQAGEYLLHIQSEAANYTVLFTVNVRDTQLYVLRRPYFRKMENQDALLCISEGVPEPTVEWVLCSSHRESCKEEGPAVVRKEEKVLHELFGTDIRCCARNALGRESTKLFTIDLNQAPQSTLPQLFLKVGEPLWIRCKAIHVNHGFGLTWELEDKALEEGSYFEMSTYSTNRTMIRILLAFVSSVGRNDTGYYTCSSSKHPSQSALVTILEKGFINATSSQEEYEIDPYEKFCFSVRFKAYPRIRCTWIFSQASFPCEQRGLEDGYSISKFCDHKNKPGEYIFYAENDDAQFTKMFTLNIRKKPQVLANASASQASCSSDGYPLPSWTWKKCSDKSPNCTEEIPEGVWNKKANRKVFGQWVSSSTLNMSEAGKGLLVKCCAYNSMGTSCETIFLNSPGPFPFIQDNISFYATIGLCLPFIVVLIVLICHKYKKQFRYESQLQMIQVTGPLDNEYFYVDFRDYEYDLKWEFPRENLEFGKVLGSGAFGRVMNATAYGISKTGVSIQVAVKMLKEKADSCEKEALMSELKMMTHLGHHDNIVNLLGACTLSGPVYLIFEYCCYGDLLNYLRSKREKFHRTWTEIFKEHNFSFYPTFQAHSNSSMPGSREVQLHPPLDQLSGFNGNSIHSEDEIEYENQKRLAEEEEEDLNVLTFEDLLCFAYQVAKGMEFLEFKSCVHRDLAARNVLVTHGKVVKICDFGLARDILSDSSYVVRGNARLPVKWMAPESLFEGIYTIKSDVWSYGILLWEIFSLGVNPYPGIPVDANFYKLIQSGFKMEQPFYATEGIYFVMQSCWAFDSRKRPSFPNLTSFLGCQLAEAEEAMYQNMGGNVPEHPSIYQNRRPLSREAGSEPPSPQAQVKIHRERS

[3] = biological target: T3, rat FLT3 expressed on Ba/F3 cells (rat, UniProt A0A0G2JW59 27-982); assay: flow cytometry, cell surface binding to Ba/F3 pMIY cells expressing rFLT3wt, MFI ratio normalized to IgG1, mean ± s.d. of n=3
T3 construct: whole, on cells
T3 sequence: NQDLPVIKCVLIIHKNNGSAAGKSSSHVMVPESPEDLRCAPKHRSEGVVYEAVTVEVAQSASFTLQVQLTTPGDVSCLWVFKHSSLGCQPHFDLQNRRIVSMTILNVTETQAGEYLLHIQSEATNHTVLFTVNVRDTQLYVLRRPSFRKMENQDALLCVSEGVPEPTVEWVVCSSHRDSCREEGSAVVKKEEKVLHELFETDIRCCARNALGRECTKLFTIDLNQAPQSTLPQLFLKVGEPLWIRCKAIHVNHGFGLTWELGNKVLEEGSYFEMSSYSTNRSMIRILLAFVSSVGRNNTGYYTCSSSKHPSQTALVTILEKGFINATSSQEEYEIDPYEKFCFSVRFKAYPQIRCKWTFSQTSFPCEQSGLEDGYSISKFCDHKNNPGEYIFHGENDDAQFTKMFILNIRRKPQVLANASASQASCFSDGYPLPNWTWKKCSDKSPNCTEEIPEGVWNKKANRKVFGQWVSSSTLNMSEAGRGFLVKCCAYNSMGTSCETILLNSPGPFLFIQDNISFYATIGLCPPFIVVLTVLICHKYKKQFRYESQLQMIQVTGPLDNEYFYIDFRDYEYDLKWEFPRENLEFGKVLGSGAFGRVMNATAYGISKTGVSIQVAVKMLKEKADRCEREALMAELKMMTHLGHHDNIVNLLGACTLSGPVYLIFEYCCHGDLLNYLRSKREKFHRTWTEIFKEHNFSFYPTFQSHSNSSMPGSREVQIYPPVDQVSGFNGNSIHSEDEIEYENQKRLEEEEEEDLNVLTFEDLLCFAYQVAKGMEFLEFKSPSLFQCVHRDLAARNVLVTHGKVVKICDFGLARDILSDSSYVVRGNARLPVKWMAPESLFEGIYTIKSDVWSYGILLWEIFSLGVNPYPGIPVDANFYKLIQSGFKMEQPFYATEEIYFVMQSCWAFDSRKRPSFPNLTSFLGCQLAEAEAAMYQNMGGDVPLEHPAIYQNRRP

T1 sequence (P16234 24-1089 limits assumed): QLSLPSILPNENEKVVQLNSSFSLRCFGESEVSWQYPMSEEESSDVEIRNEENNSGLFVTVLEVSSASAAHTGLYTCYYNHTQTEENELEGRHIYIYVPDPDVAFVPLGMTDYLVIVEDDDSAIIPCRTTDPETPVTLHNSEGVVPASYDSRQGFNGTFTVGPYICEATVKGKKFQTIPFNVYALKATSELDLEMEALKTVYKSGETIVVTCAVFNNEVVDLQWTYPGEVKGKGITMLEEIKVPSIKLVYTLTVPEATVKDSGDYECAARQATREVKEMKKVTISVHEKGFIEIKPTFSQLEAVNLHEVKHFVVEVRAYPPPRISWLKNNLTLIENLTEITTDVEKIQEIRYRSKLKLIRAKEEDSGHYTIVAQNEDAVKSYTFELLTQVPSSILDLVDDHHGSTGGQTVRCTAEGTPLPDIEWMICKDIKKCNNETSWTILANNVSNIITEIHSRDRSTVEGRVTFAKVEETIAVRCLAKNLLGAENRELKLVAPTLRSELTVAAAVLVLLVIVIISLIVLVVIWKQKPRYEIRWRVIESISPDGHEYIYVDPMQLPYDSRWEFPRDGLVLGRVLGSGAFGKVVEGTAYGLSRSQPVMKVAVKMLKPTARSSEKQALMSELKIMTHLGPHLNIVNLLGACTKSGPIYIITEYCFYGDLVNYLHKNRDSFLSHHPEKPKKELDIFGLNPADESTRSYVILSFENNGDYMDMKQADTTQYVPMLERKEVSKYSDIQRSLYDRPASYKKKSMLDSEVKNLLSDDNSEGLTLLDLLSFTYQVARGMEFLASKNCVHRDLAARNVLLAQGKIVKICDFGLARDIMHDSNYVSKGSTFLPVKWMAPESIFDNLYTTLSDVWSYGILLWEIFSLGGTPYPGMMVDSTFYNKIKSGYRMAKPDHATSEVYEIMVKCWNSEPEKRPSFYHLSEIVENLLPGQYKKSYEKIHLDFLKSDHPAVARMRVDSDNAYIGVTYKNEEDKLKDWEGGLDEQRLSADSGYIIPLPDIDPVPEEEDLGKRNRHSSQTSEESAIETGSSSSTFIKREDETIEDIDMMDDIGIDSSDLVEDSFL

binding result [1]: no binding
binding result [2]: no binding
binding result [3]: no binding
B1: Humanized clone 3 of 20D9 (VH3 + VK1) (antibody, human IgG1, kappa)
heavy: not shown
light: DIQMTQSPSVLSASVGDRVTINCRASQNINKELNWYQQKLGEAPKLLIYNTNNLQSGVPSRFSGSGSGTDYTLTISSLQPEDVATYFCFQHKSWPLTFGSGTKLEIKRTVAAPSVFIFPPSDEQLKSGTASVVCLLNNFYPREAKVQWKVDNALQSGNSQESVTEQDSKDSTYSLSSTLTLSKADYEKHKVYACEVTHQGLSSPVTKSFNRGEC
notes: also called candidate #3; #3 mab
